From patent US20220313738A1
Residue numbers refer to the chain shown, from its start.

B1: wildtype SIV Nef, Q02840 1-223 (protein)
chain: MGSSNSKRQQQGLLKLWRGLRGKPGADWVLLSDPLIGQSSTVQEECGKALKKSWGKGKMTPDGRRLQEGDTFDEWDDDEEEVGFPVQPRVPLRQMTYKLAVDFSHFLKSKGGLDGIYYSERREKILNLYALNEWGIIDDWQAYSPGPGIRYPRVFGFCFKLVPVDLHEEARNCERHCLMHPAQMGEDPDGIDHGEVLVWKFDPKLAVEYRPDMFKDMHEHAKR
B2: SIV Nef M116, Q02840 1-223 (protein)
chain: B1 chain with L178A, M179A

Biological target: Jurkat-M663, Jurkat-M665 and Jurkat-M666 (ISD-modified BCMA CARs M663, M665, M666)
Experiment: cell-based or functional assay

| Binder | relative ISD-modified CAR positive rate (FACS), days 6, 7 and 8 |
| --- | --- |
| B1 | 41.2 to 69.8% |
| B2 | 44.6 to 64.9% |
